Data set [1] deals with KLAK-sFt-GFP fusion peptide (pro-apoptotic peptide-ferritin monomer fragment-linker-GFP fusion polypeptide).
For data set [2], the target named is type II fusion peptide (pro-apoptotic peptide-linker-ferritin monomer fragment-linker-GFP fusion polypeptide).

Data on one protein can be found in patent US20180291072.

B1: Recombinant MMP-2 (protein)
chain: YNFFPRKPKWDKNQITYRIIGYTPDLDPETVDDAFARAFQVWSDVTPLRFSRIHDGEADIMINFGRWEHGDGYPFDGKDGLLAHAFAPGTGVGGDSHFDDDELWTLGEGQVVRVKYGNADGEYCKFPFLFNGKEYNSCTDTGRSDGFLWCSTTYNFEKDGKYGFCPHEALFTMGGNAEGQPCKFPFRFQGTSYDSCTTEGRTDGYRWCGTTEDYDRDKKYGFCPETAMSTVGGNSEGAPCVFPFTFLGNKYESCTSAGRSDGKMWCATTANYDDDRKWGFCPDQGYSLFLVAAHEFGHAMGLEHSQDPGALMAPIYTYTKNFRLSQDDIKGIQELYGASPDIDLGTGPTPTLGPVTPEICKQDIVFDGIAQIRGEIFFFKDRFIWRTVTPRDKPMGPLLVATFWPELPEKIDAVYEAPQEEKAVFFAGNEYWIYSASTLERGYPKPLTSLGLPPDVQRVDAAFNWSKNKKTYIFAGDKFWRYNEVKKKMDPGFPKLIADAWNAIPDNLDAVVDLQGGGHSYFFKGAYYLKLENQSLKSVKFGSIKSDWLGC
Regarding B1, the “linker cleavage, SDS-PAGE of products” value is “each linker of type I fusion peptide and type II fusion peptide was cleaved, and products generated by the linker cleavage were observed in a concentration-dependent manner” in data set [1]; “each linker of type I fusion peptide and type II fusion peptide was cleaved, and products generated by the linker cleavage were observed in a concentration-dependent manner” in data set [2]. Also, the “linker cleavage, SDS-PAGE” value with sFt-GFP fusion peptide and with wFt-GFP fusion peptide was “sFt-GFP was more easily cleaved by MMP-2 as compared with wFt-GFP” in each case.
